In patent US7063965 (Regeneron, dated 2006):

Key:
[1] = target: TIE-2 receptor on ABAE (Adult Bovine Arterial Endothelial) cells (bovine, UniProt Q06807 23-1125); test: cell-based or functional assay
[2] = target: T1, EHK-1 receptorbody (rEHK-1 ecto/hIgG1 Fc) (rat; human, UniProt P54757 27-575); test: SPR (BIAcore), conditioned medium preincubated with soluble receptorbody before injection over immobilised TIE-2 RB
T1 construct: extracellular domain; also called EHK-1 RB; soluble EHK-1 RB

[3] = target: T2, rat TIE-2 receptorbody (entire extracellular portion of the rat TIE-2 receptor fused to human IgG1 Fc) (rat; human, UniProt A0ABK0L6J5 19-740); test: SPR (BIAcore), >50x concentrated conditioned medium over immobilised TIE-2 RB
T2 construct: extracellular domain; also called TIE-2 RB; r TIE-2 ecto/h IgG1 Fc; not shown: human immunoglobulin gamma-1 constant region (IgG1 Fc), from the hinge region to the carboxy-terminus
Protocol: Purified TIE-2 RB was covalently coupled through primary amines to the carboxymethyl dextran layer of a CM5 research grade sensor chip (Pharmacia Biosensor; Piscataway, N.J.). The sensor chip surface was activated using a mixture of N-hydroxysuccinimide (NHS) and N-ethyl-N'-(3-dimethylaminopropyl)carbodiimide (EDC), followed by immobilization of TIE-2 RB (25 µg/mL, pH 4.5) and deactivation of unreacted sites with 1.0 M ethanolamine (pH 8.5). A negative control surface of the EHK-1 receptorbody was prepared in a similar manner.
The running buffer used in the system was HBS (10 mM Hepes, 3.4 mM EDTA, 150 mM NaCl, 0.005% P20 surfactant, pH 7.4). […] Aliquots of 40 µL were injected across the immobilized surface (either TIE-2 or EHK-1) at a flow rate of 5 µL/min and the receptor binding was monitored for 8 min. The binding activity (resonance units, RU) was measured as the difference between a baseline value determined 30 s prior to the sample injection and a measurement taken at 30 s post-injection. […]
The instrument noise level is 20 RU; therefore, any binding activity with a signal above 20 RU may be interpreted as a real interaction with the receptor. […] For the same samples assayed on a EHK-1 RB immobilized surface, the measured activities were less than 35 RU. […]

T1 sequence (P54757 27-575): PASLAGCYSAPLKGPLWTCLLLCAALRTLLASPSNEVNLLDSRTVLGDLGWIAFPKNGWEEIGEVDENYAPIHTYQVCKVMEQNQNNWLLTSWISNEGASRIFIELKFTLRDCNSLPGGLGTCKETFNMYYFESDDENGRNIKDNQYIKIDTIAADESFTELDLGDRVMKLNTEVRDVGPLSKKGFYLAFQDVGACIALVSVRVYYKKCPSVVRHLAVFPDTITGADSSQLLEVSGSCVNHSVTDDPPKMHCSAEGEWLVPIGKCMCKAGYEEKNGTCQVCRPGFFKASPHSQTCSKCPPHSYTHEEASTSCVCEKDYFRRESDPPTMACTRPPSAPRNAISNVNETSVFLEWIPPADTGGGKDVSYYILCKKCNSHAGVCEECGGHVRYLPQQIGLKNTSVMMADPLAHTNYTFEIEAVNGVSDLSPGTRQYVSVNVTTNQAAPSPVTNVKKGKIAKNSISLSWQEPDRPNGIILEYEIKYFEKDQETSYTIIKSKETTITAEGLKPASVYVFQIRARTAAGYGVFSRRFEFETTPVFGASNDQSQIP
Chain of TIE-2 receptor on ABAE (Adult Bovine Arterial Endothelial) cells (Q06807 23-1125): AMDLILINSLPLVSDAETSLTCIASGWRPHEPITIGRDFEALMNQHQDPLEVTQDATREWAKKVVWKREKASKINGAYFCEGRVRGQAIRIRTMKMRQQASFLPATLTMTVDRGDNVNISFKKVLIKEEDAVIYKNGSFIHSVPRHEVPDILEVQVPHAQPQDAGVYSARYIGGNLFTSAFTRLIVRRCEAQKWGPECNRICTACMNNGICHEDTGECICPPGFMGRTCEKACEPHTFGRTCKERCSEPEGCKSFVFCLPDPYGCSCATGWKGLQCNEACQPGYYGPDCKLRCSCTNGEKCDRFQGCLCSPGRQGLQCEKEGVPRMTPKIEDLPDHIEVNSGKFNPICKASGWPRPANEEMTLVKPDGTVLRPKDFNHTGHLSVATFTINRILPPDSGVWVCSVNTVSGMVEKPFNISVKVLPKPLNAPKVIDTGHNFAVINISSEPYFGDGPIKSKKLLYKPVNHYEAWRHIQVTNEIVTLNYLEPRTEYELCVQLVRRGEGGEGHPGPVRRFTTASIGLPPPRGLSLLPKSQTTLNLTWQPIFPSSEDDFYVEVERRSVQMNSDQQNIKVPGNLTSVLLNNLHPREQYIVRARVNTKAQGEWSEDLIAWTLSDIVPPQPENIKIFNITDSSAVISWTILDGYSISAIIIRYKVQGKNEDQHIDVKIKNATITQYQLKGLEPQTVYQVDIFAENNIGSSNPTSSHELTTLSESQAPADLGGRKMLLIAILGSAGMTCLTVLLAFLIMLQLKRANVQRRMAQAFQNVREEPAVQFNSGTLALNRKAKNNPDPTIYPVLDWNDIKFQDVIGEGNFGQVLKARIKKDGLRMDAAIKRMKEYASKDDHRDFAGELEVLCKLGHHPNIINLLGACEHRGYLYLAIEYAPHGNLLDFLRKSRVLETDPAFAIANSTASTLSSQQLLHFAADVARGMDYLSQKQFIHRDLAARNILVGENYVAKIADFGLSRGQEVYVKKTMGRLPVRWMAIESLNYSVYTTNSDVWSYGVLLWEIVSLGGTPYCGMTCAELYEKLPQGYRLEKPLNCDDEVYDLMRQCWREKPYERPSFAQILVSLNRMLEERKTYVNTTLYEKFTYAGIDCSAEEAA

B1: TIE-2 ligand in C2C12-ras conditioned medium (ligand, mouse, UniProt O08538 20-498, looked up)
chain: SNQRRNPENGGRRYNRIQHGQCAYTFILPEHDGNCRESATEQYNTNALQRDAPHVEPDFSSQKLQHLEHVMENYTQWLQKLENYIVENMKSEMAQIQQNAVQNHTATMLEIGTSLLSQTAEQTRKLTDVETQVLNQTSRLEIQLLENSLSTYKLEKQLLQQTNEILKIHEKNSLLEHKILEMEGKHKEELDTLKEEKENLQGLVSRQTFIIQELEKQLSRATNNNSILQKQQLELMDTVHNLISLCTKEGVLLKGGKREEEKPFRDCADVYQAGFNKSGIYTIYFNNMPEPKKVFCNMDVNGGGWTVIQHREDGSLDFQRGWKEYKMGFGNPSGEYWLGNEFIFAITSQRQYMLRIELMDWEGNRAYSQYDRFHIGNEKQNYRLYLKGHTGTAGKQSSLILHGADFSTKDADNDNCMCKCALMLTGGWWFDACGPSNLNGMFYTAGQNHGKLNGIKWHYFKGPSYSLRSTTMMIRPLDF
notes: Unpurified activity in concentrated conditioned medium; also called C2C12-ras 10xCCM
- TIE-2 tyrosine phosphorylation in ABAE cells (immunoprecipitation and Western blot) [1]: 100 fold
- binding result [2]: no binding (tested: excess)
- fold enhancement over background of the TIE-2 specific binding signal [3]: 4 fold
